Each block holds one binder with its values, some of them ahead of it.
Key:
[1] = molecular target: T1, human procollagen I α2 chain (human, UniProt P08123 23-1366); assay: Western blot, procollagen I chains on membrane, anti-His-HRP detection
T1 construct: The separated chain as it stood on the Western blot membrane; With the chimeric IgG, a partially degraded form was also positive; also called Pro-α2; collagen α2-chain

[2] = molecular target: T1, human procollagen I α2 chain; assay: Western blot, procollagen I chains on membrane, anti-FLAG-HRP detection
[3] = molecular target: T1, human procollagen I α2 chain; assay: Western blot, procollagen I chains on membrane, anti-human γ-HRP detection

T1 sequence (P08123 23-1366 limits assumed): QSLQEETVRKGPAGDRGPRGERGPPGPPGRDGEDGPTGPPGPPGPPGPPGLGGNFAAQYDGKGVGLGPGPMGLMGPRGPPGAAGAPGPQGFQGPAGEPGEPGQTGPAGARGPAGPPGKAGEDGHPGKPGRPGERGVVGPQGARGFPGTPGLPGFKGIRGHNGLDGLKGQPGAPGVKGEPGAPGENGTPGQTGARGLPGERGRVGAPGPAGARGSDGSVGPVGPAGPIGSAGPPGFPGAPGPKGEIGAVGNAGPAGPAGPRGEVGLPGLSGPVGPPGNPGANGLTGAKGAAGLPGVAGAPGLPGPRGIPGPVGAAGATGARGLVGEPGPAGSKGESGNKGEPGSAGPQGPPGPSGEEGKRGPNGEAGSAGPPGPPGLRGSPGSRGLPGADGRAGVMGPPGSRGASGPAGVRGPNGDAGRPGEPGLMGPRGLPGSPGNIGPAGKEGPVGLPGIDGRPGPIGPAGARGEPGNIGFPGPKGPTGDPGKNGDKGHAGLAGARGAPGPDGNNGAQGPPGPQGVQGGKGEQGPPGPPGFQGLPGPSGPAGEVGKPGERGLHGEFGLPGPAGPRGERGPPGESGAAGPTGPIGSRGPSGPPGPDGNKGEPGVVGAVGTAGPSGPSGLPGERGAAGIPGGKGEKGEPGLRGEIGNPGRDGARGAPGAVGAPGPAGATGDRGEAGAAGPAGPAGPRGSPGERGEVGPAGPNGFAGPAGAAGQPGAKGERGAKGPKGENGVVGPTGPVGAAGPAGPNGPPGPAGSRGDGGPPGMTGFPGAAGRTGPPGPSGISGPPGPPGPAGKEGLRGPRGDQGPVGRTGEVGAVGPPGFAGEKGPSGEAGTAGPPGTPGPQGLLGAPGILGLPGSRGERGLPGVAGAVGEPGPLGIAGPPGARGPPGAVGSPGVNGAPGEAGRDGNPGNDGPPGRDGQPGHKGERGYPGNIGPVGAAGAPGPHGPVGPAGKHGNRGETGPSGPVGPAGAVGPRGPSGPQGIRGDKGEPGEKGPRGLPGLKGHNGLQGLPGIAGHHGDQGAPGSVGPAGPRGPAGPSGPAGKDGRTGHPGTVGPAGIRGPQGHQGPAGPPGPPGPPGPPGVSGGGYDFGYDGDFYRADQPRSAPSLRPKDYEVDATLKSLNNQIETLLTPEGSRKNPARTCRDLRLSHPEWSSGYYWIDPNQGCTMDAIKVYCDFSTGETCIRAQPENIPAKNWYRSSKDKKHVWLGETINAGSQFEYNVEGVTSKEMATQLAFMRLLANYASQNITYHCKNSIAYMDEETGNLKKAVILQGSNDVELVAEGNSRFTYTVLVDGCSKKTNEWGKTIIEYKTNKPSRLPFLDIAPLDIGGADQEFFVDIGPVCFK

binding result [1]: binds
B1: His-tagged yeast-derived A_L_K scFv variant (scFv)
scFv: QIQLVQSGPELKKPGETVKISCKASGYTFTDYPLHWVKQAPGKGLQWMAWINTETGEPTYADDFTGRFAFSLETSASTAYLQINNLKNEDTATYFCVRGYYYYWGQGTTLSVSSGGGGSGGGGSGGGGSGGGGSGGGGSGGGGSDIVMSQSPSSLAVSAGEKVTMSCKSSQSLLNSRTRKNNLAWYQQKPGQSPKLLIYWASTRESGVPDRFTGSGSGTDFTLTISSVQAEDLAVYYCKQSYNLWTFGGGTKLEIKRHHHHHH
notes: It was secreted from yeast using pPIC-9K; also called yeast scFv variant

binding result [2]: binds
B2: bacterial-derived scFv variant (anti-α2Ct single chain antibody, FLAG-tagged) (scFv)
scFv: MDIVMSQSPSSLAVSAGEKVTMSCKSSQSLLNSRTRKNNLAWYQQKPGQSPKLLIYWASTRESGVPDRFTGSGSGTDFTLTISSVQAEDLAVYYCKQSYNLWTFGGGTKLEIKVDGGGGSGGGGSGGGGSLEQIQLVQSGPELKKPGETVKISCKASGYTFTDYPLHWVKQAPGKGLQWMAWINTETGEPTYADDFTGRFAFSLETSASTAYLQINNLKNEDTATYFCVRGYYYYWGQGTTLSVSSDYKDDDDK

binding result [3]: binds
B3: mouse-human chimeric IgG consisting of the mVH-hγ and mVL-hκ chains (antibody, V domains shown)
VH: QIQLVQSGPELKKPGETVKISCKASGYTFTDYPLHWVKQAPGKGLQWMAWINTETGEPTYADDFTGRFAFSLETSASTAYLQINNLKNEDTATYFCVRGYYYYWGQGTTLSVSS
VL: DIVMSQSPSSLAVSAGEKVTMSCKSSQSLLNSRTRKNNLAWYQQKPGQSPKLLIYWASTRESGVPDRFTGSGSGTDFTLTISSVQAEDLAVYYCKQSYNLWTFGGGTKLEIKR
notes: The constant regions are human IgG1 γ (pFUSE-CHIg-hG1) and human κ (pFUSE2-CLIg-hk); The antibody was expressed in CHO cells and purified on Protein-L; also called chimeric antibody; CHO-IgG
